Results from paper PMC5916898, “Global profiling of protein–DNA and protein–nucleosome binding affinities using quantitative mass spectrometry”.

Legend:
Test in all cases: pulldown; 150 mM NaCl, 50 mM Tris pH 8, 0.25% NP-40, 1 mM TCEP; 4 C, 2 h; 100 ug HeLa nuclear lysate
Conditions in all cases: protein: extract; label: 5' biotin (strand 1)
CTCF = biological target: T1, CTCF (Homo sapiens, UniProt P49711)
T1 sequence: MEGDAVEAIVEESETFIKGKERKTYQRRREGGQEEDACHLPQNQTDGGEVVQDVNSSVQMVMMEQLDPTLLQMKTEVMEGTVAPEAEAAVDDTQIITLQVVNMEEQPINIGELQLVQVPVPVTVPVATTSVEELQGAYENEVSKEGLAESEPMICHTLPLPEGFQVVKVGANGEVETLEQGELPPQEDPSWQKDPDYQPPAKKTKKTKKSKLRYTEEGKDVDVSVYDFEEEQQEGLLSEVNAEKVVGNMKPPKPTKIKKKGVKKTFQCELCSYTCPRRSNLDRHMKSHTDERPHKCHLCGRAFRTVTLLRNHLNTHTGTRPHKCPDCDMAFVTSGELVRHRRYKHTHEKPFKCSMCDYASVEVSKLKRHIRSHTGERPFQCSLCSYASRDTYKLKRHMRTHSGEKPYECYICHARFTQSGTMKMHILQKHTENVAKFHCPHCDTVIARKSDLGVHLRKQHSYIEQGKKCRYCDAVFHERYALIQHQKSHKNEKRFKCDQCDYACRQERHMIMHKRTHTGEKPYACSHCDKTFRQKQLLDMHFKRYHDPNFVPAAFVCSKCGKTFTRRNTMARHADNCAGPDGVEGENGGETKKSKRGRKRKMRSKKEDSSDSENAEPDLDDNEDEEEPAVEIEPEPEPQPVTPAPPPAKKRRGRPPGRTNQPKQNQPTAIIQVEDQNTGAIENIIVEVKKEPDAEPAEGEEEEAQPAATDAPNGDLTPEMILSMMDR

ZBTB43 = biological target: T2, ZBTB43 (Homo sapiens, UniProt O43298)
T2 sequence: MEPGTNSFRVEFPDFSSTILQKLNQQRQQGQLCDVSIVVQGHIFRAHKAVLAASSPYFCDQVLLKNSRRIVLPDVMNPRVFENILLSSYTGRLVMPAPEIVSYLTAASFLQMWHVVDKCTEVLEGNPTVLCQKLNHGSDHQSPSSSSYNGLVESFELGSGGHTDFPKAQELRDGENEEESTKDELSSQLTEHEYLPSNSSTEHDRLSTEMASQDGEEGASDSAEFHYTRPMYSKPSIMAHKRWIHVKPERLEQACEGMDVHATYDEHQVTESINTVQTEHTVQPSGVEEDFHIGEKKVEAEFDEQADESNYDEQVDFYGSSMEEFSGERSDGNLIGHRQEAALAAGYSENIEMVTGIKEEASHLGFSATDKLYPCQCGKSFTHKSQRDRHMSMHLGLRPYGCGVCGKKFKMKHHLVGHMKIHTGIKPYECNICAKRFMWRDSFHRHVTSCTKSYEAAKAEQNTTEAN

ZBTB10 = biological target: T3, ZBTB10 (Homo sapiens, UniProt Q96DT7)
T3 sequence: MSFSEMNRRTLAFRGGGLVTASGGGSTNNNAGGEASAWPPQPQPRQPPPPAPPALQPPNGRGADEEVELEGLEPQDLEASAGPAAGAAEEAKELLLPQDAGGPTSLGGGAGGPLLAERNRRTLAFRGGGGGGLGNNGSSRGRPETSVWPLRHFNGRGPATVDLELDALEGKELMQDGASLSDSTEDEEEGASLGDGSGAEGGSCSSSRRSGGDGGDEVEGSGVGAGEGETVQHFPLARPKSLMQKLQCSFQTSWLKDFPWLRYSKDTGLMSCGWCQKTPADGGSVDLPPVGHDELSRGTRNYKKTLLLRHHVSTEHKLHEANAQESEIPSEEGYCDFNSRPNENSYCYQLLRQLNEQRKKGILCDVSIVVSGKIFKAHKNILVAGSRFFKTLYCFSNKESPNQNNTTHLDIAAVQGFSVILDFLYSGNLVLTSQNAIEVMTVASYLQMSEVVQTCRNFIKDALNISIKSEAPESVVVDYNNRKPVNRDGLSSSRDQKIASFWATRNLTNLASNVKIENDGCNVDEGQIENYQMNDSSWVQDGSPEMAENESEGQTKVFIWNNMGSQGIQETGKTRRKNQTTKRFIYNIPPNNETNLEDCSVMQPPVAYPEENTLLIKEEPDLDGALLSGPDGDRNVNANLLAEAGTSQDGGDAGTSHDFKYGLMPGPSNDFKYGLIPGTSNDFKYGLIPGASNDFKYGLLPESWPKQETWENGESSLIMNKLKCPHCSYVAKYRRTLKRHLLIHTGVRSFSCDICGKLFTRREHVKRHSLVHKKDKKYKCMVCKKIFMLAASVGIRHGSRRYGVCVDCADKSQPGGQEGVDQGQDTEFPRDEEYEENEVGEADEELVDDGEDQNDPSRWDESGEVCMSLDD

NFAT5 = NFAT5 (Homo sapiens, UniProt O94916)
Sequence of NFAT5 (O94916 whole entry): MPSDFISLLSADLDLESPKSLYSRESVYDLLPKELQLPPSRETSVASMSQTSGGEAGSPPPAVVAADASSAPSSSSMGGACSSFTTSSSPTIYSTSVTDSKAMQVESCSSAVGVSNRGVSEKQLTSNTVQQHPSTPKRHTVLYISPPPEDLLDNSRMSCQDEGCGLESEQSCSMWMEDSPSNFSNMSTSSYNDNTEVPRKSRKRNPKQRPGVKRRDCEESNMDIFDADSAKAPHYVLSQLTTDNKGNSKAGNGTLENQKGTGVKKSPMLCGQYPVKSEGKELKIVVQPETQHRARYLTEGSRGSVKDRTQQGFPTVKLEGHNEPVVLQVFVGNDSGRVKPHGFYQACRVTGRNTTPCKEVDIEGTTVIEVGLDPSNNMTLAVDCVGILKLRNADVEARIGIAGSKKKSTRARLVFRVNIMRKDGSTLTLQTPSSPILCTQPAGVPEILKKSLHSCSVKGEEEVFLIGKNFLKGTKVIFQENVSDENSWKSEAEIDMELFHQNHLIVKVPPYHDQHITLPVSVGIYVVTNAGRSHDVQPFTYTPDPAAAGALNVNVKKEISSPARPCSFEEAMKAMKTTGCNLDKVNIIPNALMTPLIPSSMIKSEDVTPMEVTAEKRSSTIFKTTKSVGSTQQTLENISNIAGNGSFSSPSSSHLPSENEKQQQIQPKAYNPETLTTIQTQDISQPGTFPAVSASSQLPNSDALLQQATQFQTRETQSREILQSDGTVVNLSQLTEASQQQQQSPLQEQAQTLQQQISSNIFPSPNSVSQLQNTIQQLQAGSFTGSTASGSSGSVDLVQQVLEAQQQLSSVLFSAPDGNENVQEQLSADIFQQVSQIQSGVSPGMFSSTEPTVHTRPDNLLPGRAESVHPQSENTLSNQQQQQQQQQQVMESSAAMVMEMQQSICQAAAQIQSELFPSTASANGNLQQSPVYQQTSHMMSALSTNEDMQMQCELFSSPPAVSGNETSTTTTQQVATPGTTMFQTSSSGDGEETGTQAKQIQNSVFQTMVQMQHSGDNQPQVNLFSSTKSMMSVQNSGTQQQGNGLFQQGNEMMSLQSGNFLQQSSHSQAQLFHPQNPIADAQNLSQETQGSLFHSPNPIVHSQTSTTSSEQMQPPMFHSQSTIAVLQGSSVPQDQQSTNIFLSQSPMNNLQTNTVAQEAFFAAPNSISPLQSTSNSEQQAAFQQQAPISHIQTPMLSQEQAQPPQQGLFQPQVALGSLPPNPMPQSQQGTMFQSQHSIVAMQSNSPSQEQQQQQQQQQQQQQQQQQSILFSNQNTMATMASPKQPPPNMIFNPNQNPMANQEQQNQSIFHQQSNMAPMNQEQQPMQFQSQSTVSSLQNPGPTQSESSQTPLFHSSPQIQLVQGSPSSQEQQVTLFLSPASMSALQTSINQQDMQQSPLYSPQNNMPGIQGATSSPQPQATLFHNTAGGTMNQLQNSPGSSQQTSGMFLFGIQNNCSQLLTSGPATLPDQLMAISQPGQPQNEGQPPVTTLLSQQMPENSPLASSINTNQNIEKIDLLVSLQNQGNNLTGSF

B1: CTCF (dsDNA)
DNA 1: TCAGAGTGGCGGCCAGCAGGGGGCGCCCTTGCCAGA
DNA 2: TCTGGCAAGGGCGCCCCCTGCTGGCCGCCACTCTGA
apparent K (half saturation) (CTCF): 16.1 nM | apparent K (half saturation) (ZBTB43): 347 nM | apparent K (half saturation) (ZBTB10): 40.4 nM

B2: TEAD (dsDNA)
DNA 1: TCGGGACCCAGGCCTGGAATGTTTCCACC
DNA 2: GGTGGAAACATTCCAGGCCTGGGTCCCGA
apparent K (half saturation) (NFAT5): 94.6 nM
